Measured values as given in PMC9675756, “Structure of the catalytically active APOBEC3G bound to a DNA oligonucleotide inhibitor reveals tetrahedral geometry of the transition state”.

Molecular target: A3G-CTD2* (catalytically inactive), MST construct (human, UniProt Q9HC16 191-384, E259A)
Assay: MST; 23 C; MST: 20 mM Bis-Tris pH 6.5, 100 mM NaCl, 1 mM DTT, 0.002% Tween 20, 50 nM protein, RED-tris-NTA dye, 23 C; NMR inhibition: 50 mM NaPO4 pH 6.5, 100 mM NaCl, 0.002% Tween 20, 1 mM DTT, 10 µM ZnCl2, 25 C
Settings: protein: recombinant; tags: His (pET-28a); single strand

A3G-CTD2* (catalytically inactive), MST construct, sequence (Q9HC16 191-384 E259A): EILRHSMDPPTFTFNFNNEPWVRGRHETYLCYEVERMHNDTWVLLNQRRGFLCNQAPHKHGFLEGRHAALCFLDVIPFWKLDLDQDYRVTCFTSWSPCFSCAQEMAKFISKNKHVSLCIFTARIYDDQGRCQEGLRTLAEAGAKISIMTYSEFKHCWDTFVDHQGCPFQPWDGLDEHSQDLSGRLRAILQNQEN

B1: 5'-AATCCCAAA (substrate) (ssDNA)
DNA: AATCCCAAA
  Kd: 5.8 ± 0.8 µM
